Series [1] deals with T1, TdT (Homo sapiens, UniProt P04053). The settings on record: Ashley et al., Virology 77, 367-375 (1977); cited from earlier work.
For series [2], the target named is T1, TdT. Description: pH regulation of TdT enzyme activity (extension reactions, TBE-Urea gel). The series is classed as biochemical. As to the method:
The objective of these experiments is to determine the range of pH in which TdT is active.
1. A buffer of 50 mM Tris (base) and 50 mM Boric acid was prepared and its pH (initially at ˜8.5) was adjusted to 6.05, 6.9, 7.93, 8.96, 10.02, and 11.07 using acetic acid and sodium hydroxide. These buffers serve as 2× buffers in the experiments.
2. Extension reactions were assembled as follows:
3. Each reaction was incubated for 15 minutes and then loaded on a TBE-Urea gel with an unextended initiator for comparison.
In the following experiment, TdT was incubated at a pH for 15 minutes without the nucleotide or the initiator, it was then combined with the nucleotide and the initiator in such a way that the final pH of the mixture during polymerization would be different from that of the initial 15 min incubation.
1. A buffer of 50 mM Tris (base) and 50 mM Boric acid was prepared and its pH (initially at ˜8.5) was adjusted to 6.05, 6.9, 7.93, 8.96, 10.02, and 11.07 using acetic acid and sodium hydroxide. These buffers serve as 2× buffers in the experiment.
2. Extension reactions were assembled in two parts:
Eight different extension reactions were assembled with following pH used for the buffer in part 1 and part 2:
3. Both parts of each reaction were incubated for 15 minutes, they were then mixed to form the 20 μl total, then loaded on a TBE-Urea gel: […]

B1: TdT: template-independent DNA polymerase which extends single-stranded oligonucleotides (protein, UniProt P04053 1-509, looked up)
DNA nucleotidylexotransferase: MDPPRASHLSPRKKRPRQTGALMASSPQDIKFQDLVVFILEKKMGTTRRAFLMELARRKGFRVENELSDSVTHIVAENNSGSDVLEWLQAQKVQVSSQPELLDVSWLIECIRAGKPVEMTGKHQLVVRRDYSDSTNPGPPKTPPIAVQKISQYACQRRTTLNNCNQIFTDAFDILAENCEFRENEDSCVTFMRAASVLKSLPFTIISMKDTEGIPCLGSKVKGIIEEIIEDGESSEVKAVLNDERYQSFKLFTSVFGVGLKTSEKWFRMGFRTLSKVRSDKSLKFTRMQKAGFLYYEDLVSCVTRAEAEAVSVLVKEAVWAFLPDAFVTMTGGFRRGKKMGHDVDFLITSPGSTEDEEQLLQKVMNLWEKKGLLLYYDLVESTFEKLRLPSRKVDALDHFQKCFLIFKLPRQRVDSDQSSWQEGKTWKAIRVDLVLCPYERRAFALLGWTGSRQFERDLRRYATHERKMILDNHALYDKTKRIFLKAESEEEIFAHLGLDYIEPWERNA
B1: the “optimal pH” value in the series with TdT [1] was 6.85. The TdT enzymatic activity entry with TdT [2] (pH ranges above 6 and below 11) is “highly active”; in the series with TdT [2] (pH ranges below 6 and above 11) it was “substantially inactivated”.

The values above are taken from patent publication US10870872B2, “Enzymatic nucleic acid synthesis” (President and Fellows of Harvard College, priority 2016, dated 2020).
